Test results as given in publication PMC3695626 (Cell, 2013).

Target: the molecule itself
Assay: cryo-EM structure

B1: GroES (natural protein, E. coli)
chain: MNIRPLHDRVIVKRKEVETKSAGGIVLTGSAAAKSTRGEVLAVGNGRILENGEVKPLDVKVGDIVIFNDGYGVKSEKIDNEEVLIMSESDILAIVEA
- stoichiometry N: 7
